Test results taken from PMC6373145.

Target: T1, recombinant GST-tagged human occludin (human), Q16625
T1 chain: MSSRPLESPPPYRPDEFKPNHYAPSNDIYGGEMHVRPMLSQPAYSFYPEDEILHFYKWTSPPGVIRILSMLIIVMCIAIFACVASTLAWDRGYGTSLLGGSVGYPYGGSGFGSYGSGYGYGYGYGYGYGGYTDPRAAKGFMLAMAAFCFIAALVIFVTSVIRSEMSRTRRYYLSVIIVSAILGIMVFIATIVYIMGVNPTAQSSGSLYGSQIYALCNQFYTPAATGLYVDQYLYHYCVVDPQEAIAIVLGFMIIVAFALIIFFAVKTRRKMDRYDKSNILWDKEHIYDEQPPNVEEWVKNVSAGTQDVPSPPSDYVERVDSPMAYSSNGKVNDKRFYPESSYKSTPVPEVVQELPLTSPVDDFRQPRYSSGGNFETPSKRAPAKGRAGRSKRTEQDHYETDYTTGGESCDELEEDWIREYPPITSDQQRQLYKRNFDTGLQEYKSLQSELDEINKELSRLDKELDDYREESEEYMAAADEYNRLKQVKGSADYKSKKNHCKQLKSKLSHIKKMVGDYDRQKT
Test: SDS-PAGE and immunoblot; recombinant GST-occludin in 50 mM HEPES pH 7.4, 16 h at 37 °C, with or without purified HtrA; 12% SDS-PAGE, blots with α-occludin H-279 and α-GST
Conditions: remark: other sources report otherwise

B1: recombinant GST-tagged human occludin, Q16625 1-522 (natural protein)
chain: MSSRPLESPPPYRPDEFKPNHYAPSNDIYGGEMHVRPMLSQPAYSFYPEDEILHFYKWTSPPGVIRILSMLIIVMCIAIFACVASTLAWDRGYGTSLLGGSVGYPYGGSGFGSYGSGYGYGYGYGYGYGGYTDPRAAKGFMLAMAAFCFIAALVIFVTSVIRSEMSRTRRYYLSVIIVSAILGIMVFIATIVYIMGVNPTAQSSGSLYGSQIYALCNQFYTPAATGLYVDQYLYHYCVVDPQEAIAIVLGFMIIVAFALIIFFAVKTRRKMDRYDKSNILWDKEHIYDEQPPNVEEWVKNVSAGTQDVPSPPSDYVERVDSPMAYSSNGKVNDKRFYPESSYKSTPVPEVVQELPLTSPVDDFRQPRYSSGGNFETPSKRAPAKGRAGRSKRTEQDHYETDYTTGGESCDELEEDWIREYPPITSDQQRQLYKRNFDTGLQEYKSLQSELDEINKELSRLDKELDDYREESEEYMAAADEYNRLKQVKGSADYKSKKNHCKQLKSKLSHIKKMVGDYDRQKT
For B1, the stoichiometry N was 2.
